Experimental data as given in paper PMC9830397 (European Journal of Translational Myology, 2022).

Target: FITC-labelled human holo-transferrin (human, UniProt P02787 20-698, FITC label (position not given); holo form)
Assay: solid-phase fluorescence binding assay

Chain of FITC-labelled human holo-transferrin (P02787 20-698): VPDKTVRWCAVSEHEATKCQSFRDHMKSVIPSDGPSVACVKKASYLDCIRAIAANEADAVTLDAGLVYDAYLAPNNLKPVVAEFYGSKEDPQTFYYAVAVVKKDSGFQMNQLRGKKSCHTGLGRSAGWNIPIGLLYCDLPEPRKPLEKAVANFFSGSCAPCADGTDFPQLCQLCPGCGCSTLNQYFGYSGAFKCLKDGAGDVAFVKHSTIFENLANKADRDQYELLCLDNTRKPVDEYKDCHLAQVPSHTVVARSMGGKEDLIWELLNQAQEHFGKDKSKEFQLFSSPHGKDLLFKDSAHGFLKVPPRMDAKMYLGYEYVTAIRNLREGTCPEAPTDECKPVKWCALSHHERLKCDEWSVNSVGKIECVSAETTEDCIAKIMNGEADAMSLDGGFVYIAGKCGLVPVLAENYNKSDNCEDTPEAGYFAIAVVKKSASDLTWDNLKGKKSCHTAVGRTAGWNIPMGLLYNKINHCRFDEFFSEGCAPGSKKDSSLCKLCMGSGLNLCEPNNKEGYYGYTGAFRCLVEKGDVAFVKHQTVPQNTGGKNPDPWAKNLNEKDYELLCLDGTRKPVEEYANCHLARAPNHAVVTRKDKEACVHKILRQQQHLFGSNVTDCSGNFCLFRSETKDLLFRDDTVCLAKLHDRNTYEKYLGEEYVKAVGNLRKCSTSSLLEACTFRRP

B1: immX3AVD (peptide)
peptide: KKGFYKKKQCRPSKGRKRGFCWAVD
modifications: biotinylated (position not given); labelled with streptavidin-Alexa 488 conjugate (SA488) in the nuclear receptor assay
  binding result: binds
